# According to patent US20240043551A1 (ADLAI NORTYE BIOPHARMA, published 2024):
# B1: TN36-10 (antibody, V domains shown)
# VH: EVQLVESGGGLIQPGGSLRLSCAASGFSLSSSAVSWVRQAPGKGLEWIGAIGSGGTSYYSNWAKSRFTISRDTSKNTVYLQMNSLRAEDTAVYFCARDPNSSDYPYGAYGMGLWGPGTLVTVSS
# VL: DIQMTQSPSSLSASVGDRVTITCQVSQSISSYLSWYQQKPGKAPKLLIYYASTLASGVPSRFSGSGSGTDFTLTISSLQPEDFATYYCQQGYITSNVGNAFGGGTKVEIK
# notes: Humanized; also called AL4/AL8
# B2: TN36-14 (antibody, human IgG1, V domains shown)
# VH: EVQLVESGGGLVQPGGSLRLSCAASGFSLSSSAVSWVRQAPGKGLEWIGAIGSGGTSYYSNWAKSRFTISRDNSKNTLYLQMNSLRAEDTAVYYCARDPNSSDYPYGAYGMGLWGQGTLVTVSS
# VL: DIQMTQSPSSLSASVGDRVTITCQVSQSISSYLSWYQQKPGKAPKLLIYYASTLASGVPSRFSGSGSGTDFTLTISSLQPEDFATYYCQQGYITSNVGNAFGGGTKVEIK
# notes: Humanized; also called AL5/AL8
# B3: TN36-19 (antibody, human IgG1, V domains shown)
# VH: EVQLVESGGGLVQPGGSLRLSCAASGFSLSSSAVSWVRQAPGKGLEWIGAIGSGGTSYYSNWAKSRFTISRDNSKNTLYLQMNSLRAEDTAVYYCARDPNSSDYPYGAYGMGLWGPGTLVTVSS
# VL: DIQMTQSPSSLSASVGDRVTITCQVSQSISSYLSWYQQKPGKPPKLLIYYASTLASGVPSRFSGSGSGTDFTLTISSLQPEDFATYYCQQGYITSNVGNAFGGGTKVEIK
# notes: Humanized; also called AL6/AL9
# B4: TN36-16 (antibody, human IgG1, V domains shown)
# VH: EVQLVESGGGLVQPGGSLRLSCAASGFSLSSSAVSWVRQAPGKGLEWIGAIGSGGTSYYSNWAKSRFTISRDNSKNTLYLQMNSLRAEDTAVYYCARDPNSSDYPYGAYGMGLWGQGTLVTVSS
# VL: DIQMTQSPSFLSASVGDRVTITCQVSQSISSYLSWYQQKPGKAPKLLIYYASTLASGVPSRFSGSGSGTDFTLTISSLQPEDFATYYCQQGYITSNVGNAFGGGTKVEIK
# notes: Humanized; also called AL5/AL10
# B5: TN36-17 (antibody, human IgG1, V domains shown)
# VH: EVQLVESGGGLVQPGGSLRLSCAASGFSLSSSAVSWVRQAPGKGLEWIGAIGSGGTSYYSNWAKSRFTISRDNSKNTLYLQMNSLRAEDTAVYYCARDPNSSDYPYGAYGMGLWGQGTLVTVSS
# VL: DIQLTQSPSFLSASVGDRVTITCQVSQSISSYLSWYQQKPGKAPKLLIYYASTLASGVPSRFSGSGSGTEFTLTISSLQPEDFATYYCQQGYITSNVGNAFGGGTKVEIK
# notes: Humanized; also called AL5/AL11
# B6: TN36-13 (antibody, human IgG1, V domains shown)
# VH: EVQLVESGGGLIQPGGSLRLSCAASGFSLSSSAVSWVRQAPGKGLEWIGAIGSGGTSYYSNWAKSRFTISRDTSKNTVYLQMNSLRAEDTAVYFCARDPNSSDYPYGAYGMGLWGPGTLVTVSS
# VL: DIQLTQSPSFLSASVGDRVTITCQVSQSISSYLSWYQQKPGKAPKLLIYYASTLASGVPSRFSGSGSGTEFTLTISSLQPEDFATYYCQQGYITSNVGNAFGGGTKVEIK
# notes: Humanized; also called AL4/AL11
# B7: TN36-18 (antibody, human IgG1, V domains shown)
# VH: EVQLVESGGGLVQPGGSLRLSCAASGFSLSSSAVSWVRQAPGKGLEWIGAIGSGGTSYYSNWAKSRFTISRDNSKNTLYLQMNSLRAEDTAVYYCARDPNSSDYPYGAYGMGLWGPGTLVTVSS
# VL: DIQMTQSPSSLSASVGDRVTITCQVSQSISSYLSWYQQKPGKAPKLLIYYASTLASGVPSRFSGSGSGTDFTLTISSLQPEDFATYYCQQGYITSNVGNAFGGGTKVEIK
# notes: Humanized; also called AL6/AL8
# B8: TN36-20 (antibody, human IgG1, V domains shown)
# VH: EVQLVESGGGLVQPGGSLRLSCAASGFSLSSSAVSWVRQAPGKGLEWIGAIGSGGTSYYSNWAKSRFTISRDNSKNTLYLQMNSLRAEDTAVYYCARDPNSSDYPYGAYGMGLWGPGTLVTVSS
# VL: DIQMTQSPSFLSASVGDRVTITCQVSQSISSYLSWYQQKPGKAPKLLIYYASTLASGVPSRFSGSGSGTDFTLTISSLQPEDFATYYCQQGYITSNVGNAFGGGTKVEIK
# notes: Humanized; also called AL6/AL10
# B9: TN36-12 (antibody, human IgG1, V domains shown)
# VH: EVQLVESGGGLIQPGGSLRLSCAASGFSLSSSAVSWVRQAPGKGLEWIGAIGSGGTSYYSNWAKSRFTISRDTSKNTVYLQMNSLRAEDTAVYFCARDPNSSDYPYGAYGMGLWGPGTLVTVSS
# VL: DIQMTQSPSFLSASVGDRVTITCQVSQSISSYLSWYQQKPGKAPKLLIYYASTLASGVPSRFSGSGSGTDFTLTISSLQPEDFATYYCQQGYITSNVGNAFGGGTKVEIK
# notes: Humanized; also called AL4/AL10
# B10: TN36-15 (antibody, human IgG1, V domains shown)
# VH: EVQLVESGGGLVQPGGSLRLSCAASGFSLSSSAVSWVRQAPGKGLEWIGAIGSGGTSYYSNWAKSRFTISRDNSKNTLYLQMNSLRAEDTAVYYCARDPNSSDYPYGAYGMGLWGQGTLVTVSS
# VL: DIQMTQSPSSLSASVGDRVTITCQVSQSISSYLSWYQQKPGKPPKLLIYYASTLASGVPSRFSGSGSGTDFTLTISSLQPEDFATYYCQQGYITSNVGNAFGGGTKVEIK
# notes: Humanized; also called AL5/AL9
# B11: TN36-11 (antibody, human IgG1, V domains shown)
# VH: EVQLVESGGGLIQPGGSLRLSCAASGFSLSSSAVSWVRQAPGKGLEWIGAIGSGGTSYYSNWAKSRFTISRDTSKNTVYLQMNSLRAEDTAVYFCARDPNSSDYPYGAYGMGLWGPGTLVTVSS
# VL: DIQMTQSPSSLSASVGDRVTITCQVSQSISSYLSWYQQKPGKPPKLLIYYASTLASGVPSRFSGSGSGTDFTLTISSLQPEDFATYYCQQGYITSNVGNAFGGGTKVEIK
# notes: Humanized; also called AL4/AL9
# Columns and labels:
# [1] = target: T1, rat TNFR2 (R&D systems, 8348-R2-050) (rat, UniProt Q80WY6 23-258); experiment: ELISA, receptor coated at 1 µg/ml
# T1 construct: Bought protein
# T1 sequence (looked up): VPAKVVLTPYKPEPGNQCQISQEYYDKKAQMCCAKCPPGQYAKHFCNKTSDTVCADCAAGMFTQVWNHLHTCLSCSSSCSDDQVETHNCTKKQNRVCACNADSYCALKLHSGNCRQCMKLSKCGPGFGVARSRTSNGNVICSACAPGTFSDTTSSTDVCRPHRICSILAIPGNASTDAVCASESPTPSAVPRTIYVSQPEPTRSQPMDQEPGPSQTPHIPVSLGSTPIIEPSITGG
# Method: Plates were incubated at 4° C. overnight. Antibodies was titrated from 100 μg/ml in a 5-fold dilution series, and distributed 100 μL, per well and incubated at 37° C. for 1 hour. Human IgG1 isotype control (BioxCell, BE0297) was used as negative control. TNFR2 Polyclonal Antibody (Invitrogen, PAS-80159) and HRP conjugated Goat anti-Rabbit IgG Fc Secondary Antibody (Invitrogen, A16116) were used as positive control for rat TNFR2 detection.
# [2] = target: T2, mouse TNFR2 (R&D systems, 426-R2-050/CF) (mouse, UniProt P25119 23-258); experiment: ELISA, receptor coated at 1 µg/mL
# T2 construct: Bought protein
# T2 sequence (looked up): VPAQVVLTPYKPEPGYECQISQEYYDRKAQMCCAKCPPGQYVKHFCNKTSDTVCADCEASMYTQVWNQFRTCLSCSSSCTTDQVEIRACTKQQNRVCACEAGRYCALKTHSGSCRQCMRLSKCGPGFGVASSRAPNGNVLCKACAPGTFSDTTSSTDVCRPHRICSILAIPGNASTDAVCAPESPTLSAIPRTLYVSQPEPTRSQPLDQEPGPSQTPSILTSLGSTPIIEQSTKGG
# Method: (§1) Human TNFR2 (Acro Biosystem, TN2-H5227), Human TNFR1 (Acro Biosystem, TN1-H5222), Cynomolgus TNFR2 (Sino Biological, 90102-CO8H) or mouse TNFR2 (R&D systems, 426-R2-050/CF) was coated on high binding polystyrene flat bottom micro-titer plates (Thermo Scientific, 3455) in PBS (PH=7.4, Gibco,10010-031) at 1 μg/mL and 100 μL per well. Plates were incubated at 4° C. overnight.
# (§2) Plates were warmed up to room temperature the next day and washed with 200 μL PBS containing 0.1% Tween 20 (Life technologies, 003005) per well for 3 times. Plates were blocked with 200 μL PBS buffer containing 1% BSA (Fisher Scientific, BP1600-100) per well for 1 hour at 37° C. Antibodies was titrated from 5 μg/mL in a 5-fold dilution series, distributed 100 μL per well and incubated at 37° C. for 1 hour. Human IgG1 isotype control (BioxCell, BE0297) was used as negative control. Plates were washed with 200 μL PBS containing 0.1% Tween 20 (Life technologies, 003005) per well for 3 times. Goat anti-Human IgG Fc Secondary Antibody-HRP conjugate (Invitrogen, A18817) were distributed at 0.5μg/mL and 100 μL per well to detect bound antibodies. After 1-hour incubation of secondary antibody at 37° C., plates were washed with 200 μL PBS containing 0.1% Tween 20 (Life technologies, 003005) per well for 3 times. Plates were developed using TMB Substrate Solution (eBioscience, 00-4201-56) and stopped with ELISA stop solution (Invitrogen, SSO4). The level of bound antibodies was determined by reading absorbance at 450 nm. Mouse anti-human TNFR1 antibody (ThermoFisher Scientific, MA1-81005) and goat anti mouse IgG secondary antibody-HRP conjugate (Invitrogen, 62-5520) were used as positive control for human TNFR1 detection. Armenian Hamster anti-mouse TNFR2 antibody (InVivoMab, BE0247) and HRP-Goat anti-Armenian Hamster IgG (H+L) Secondary Antibody (Invitrogen, PA1-32045) were used as positive control for mouse TNFR2 detection.
# [3] = target: T3, Human TNFR1 (Acro Biosystem, TN1-H5222) (human, UniProt P19438 30-211); experiment: ELISA, receptor coated at 1 µg/mL
# T3 construct: Bought protein; also called TNF receptor type 1; CD120a
# T3 sequence (looked up): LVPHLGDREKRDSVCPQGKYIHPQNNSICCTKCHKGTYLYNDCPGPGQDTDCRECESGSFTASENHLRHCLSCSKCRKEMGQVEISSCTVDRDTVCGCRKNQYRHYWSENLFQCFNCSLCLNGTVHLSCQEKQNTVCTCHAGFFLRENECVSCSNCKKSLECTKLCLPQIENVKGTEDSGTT
# Method: as §1, §2
Binder,binding result [1],binding result [2],binding result [3]
B1,no binding (tested: titrated from 100 µg/ml),no binding (tested: titrated from 5 µg/mL),no binding (tested: titrated from 5 µg/mL)
B2,no binding (tested: titrated from 100 µg/ml),no binding (tested: titrated from 5 µg/mL),no binding (tested: titrated from 5 µg/mL)
B3,no binding (tested: titrated from 100 µg/ml),no binding (tested: titrated from 5 µg/mL),no binding (tested: titrated from 5 µg/mL)
B4,no binding (tested: titrated from 100 µg/ml),no binding (tested: titrated from 5 µg/mL),no binding (tested: titrated from 5 µg/mL)
B5,no binding (tested: titrated from 100 µg/ml),no binding (tested: titrated from 5 µg/mL),no binding (tested: titrated from 5 µg/mL)
B6,no binding (tested: titrated from 100 µg/ml),no binding (tested: titrated from 5 µg/mL),no binding (tested: titrated from 5 µg/mL)
B7,no binding (tested: titrated from 100 µg/ml),no binding (tested: titrated from 5 µg/mL),no binding (tested: titrated from 5 µg/mL)
B8,no binding (tested: titrated from 100 µg/ml),no binding (tested: titrated from 5 µg/mL),no binding (tested: titrated from 5 µg/mL)
B9,no binding (tested: titrated from 100 µg/ml),no binding (tested: titrated from 5 µg/mL),no binding (tested: titrated from 5 µg/mL)
B10,no binding (tested: titrated from 100 µg/ml),no binding (tested: titrated from 5 µg/mL),no binding (tested: titrated from 5 µg/mL)
B11,no binding (tested: titrated from 100 µg/ml),no binding (tested: titrated from 5 µg/mL),no binding (tested: titrated from 5 µg/mL)
